Reference: patent US20100021899

Target: alpha-PrP (prion protein, alpha form) (UniProt P04156)
Experiment: SPR
Conditions: PBS pH 7.0, room temperature

GTTCGGCACTTGGGCCCTTTTCTGTGTCTTTCTGTGCCCTTAGATAGTATGTGCAATCA [CaAp-3]
Kd: 116 nM
